Experimental findings from PMC6323846, “Comprehensive investigation of the gene expression system regulated by an Aspergillus oryzae transcription factor XlnR using integrated mining of gSELEX-Seq and microarray data” are described below.

The labels stand for the following.
T1: MBP-AoXlnR (MBP-XlnR1-183) (Aspergillus oryzae (strain not given for the expression construct; RIB40 used for genomic DNA)) (UniProt Q2UD93)
T1 sequence: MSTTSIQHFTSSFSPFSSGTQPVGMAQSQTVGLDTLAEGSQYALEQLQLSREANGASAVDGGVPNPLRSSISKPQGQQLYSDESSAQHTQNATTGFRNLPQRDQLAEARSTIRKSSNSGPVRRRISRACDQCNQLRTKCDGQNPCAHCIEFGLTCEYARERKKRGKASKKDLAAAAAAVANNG

T2: MBP-AoXlnR (MBP-XlnR1-183) (Aspergillus oryzae (strain  …, UniProt Q2UD93 1-183))
T2 sequence: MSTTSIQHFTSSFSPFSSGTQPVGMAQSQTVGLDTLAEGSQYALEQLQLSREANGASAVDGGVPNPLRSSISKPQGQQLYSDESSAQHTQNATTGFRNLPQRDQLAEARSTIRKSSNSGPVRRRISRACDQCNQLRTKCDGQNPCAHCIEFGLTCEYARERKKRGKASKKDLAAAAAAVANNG

B1: egl-617 (dsDNA)
DNA 1: GCAGCGGCGAAAGGTGCAGGATGGCTGACGCTCAGTTTAATGAGCAGTGGCCTTTTTTTTTTTTTTTTTT
DNA 2: AAAAAAAAAAAAAAAAAAGGCCACTGCTCATTAAACTGAGCGTCAGCCATCCTGCACCTTTCGCCGCTGC
B2: egl-363 (dsDNA)
DNA 1: CAACCCGAGGGTCGATCGACTCCGGCATTAGCTGCCCAGCAGGTATACAGCCTTTTTTTTTTTTTTTTTT
DNA 2: AAAAAAAAAAAAAAAAAAGGCTGTATACCTGCTGGGCAGCTAATGCCGGAGTCGATCGACCCTCGGGTTG
B3: egl-242 (dsDNA)
DNA 1: GGAGACTCCTCTCATCTTGCTGGGCTGAAGACTCGGTCAATACCATGATACCTTTTTTTTTTTTTTTTTT
DNA 2: AAAAAAAAAAAAAAAAAAGGTATCATGGTATTGACCGAGTCTTCAGCCCAGCAAGATGAGAGGAGTCTCC
B4: abf-830 (abf-837 in Table S1) (dsDNA)
DNA 1: TTAAACACATGAGACACACTCGCGGCTGAATGGTTTCGGGTTTTAGCCGGCCTTTTTTTTTTTTTTTTTT
DNA 2: AAAAAAAAAAAAAAAAAAGGCCGGCTAAAACCCGAAACCATTCAGCCGCGAGTGTGTCTCATGTGTTTAA
B5: abf-687 (abf-680 in Table S1) (dsDNA)
DNA 1: GCAGAAGCTCTTGCAGATCTGTCGGCTGAAGGTTTGTTTTAGGCCAAATGCCTTTTTTTTTTTTTTTTTT
DNA 2: AAAAAAAAAAAAAAAAAAGGCATTTGGCCTAAAACAAACCTTCAGCCGACAGATCTGCAAGAGCTTCTGC

One data set has as its target T1, MBP-AoXlnR (MBP-XlnR1-183) (Aspergillus oryzae (strain not given for the expression construct; RIB40 used for genomic DNA)). The data set can be described thus: BLI. To be noted: BLI (BLItz, streptavidin sensors), Kinetics Buffer 10x (Pall-ForteBio; composition and pH not stated), room temperature, DNA immobilized, 1:1 global fit. (In general: BLI is a label-free optical method that tracks binding on a fibre tip over time.)
In general, Kd refers to the equilibrium constant for the complex coming apart. “CCAGCCAACCTTCAGCTCAGCAATGCATGCCTTTTTCCCTTTTACCCATTTACCCAGGAATAATGGCATCCTCAGGGTTTCAGCATCTGCT (double strand) [xynF1_upstream_1]”: the Kd worked out at 311 nM. Same read-out and setting: for “GGAATTCGGGGTATTAGGCTAAACGTGGCTATCATGGTGAAACAGGCTGAAGAACAGTTCCTGGCAGGTCAAATGGGAATCTAGAGC (double strand) [XRE-WT]” the value was 656 nM. Take XRE-WT: the Kd came to 656 nM.

The target of another data set is T2, MBP-AoXlnR (MBP-XlnR1-183). Briefly: BLI; BLI (BLItz, streptavidin sensors), Kinetics Buffer 10x (Pall-ForteBio; composition and pH not stated), room temperature, DNA immobilized, 1:1 global fit. To be noted: protein: recombinant; label: 5' biotin on bio-polyA strand (complement of strand 1, S14 extended); blunt.
Consider B1, for which the Kd came to 48.4 nM. Same read-out and setting: for B2 the value was 68.7 nM. Turning to B3, the equilibrium dissociation constant (Kd) is 40.6 nM.

Turning to B4, the Kd is 144 nM.

On to B5, for which the Kd came to 133 nM.
